Consider six substances from paper PMC7101349.

Experiment in all cases: not stated; tetrameric assembly of the BRIL-KcsA linker constructs; how it was judged is not told
Experiment [1] addresses BRIL-2turn-KcsA (construct 7) (UniProt P0A334).
In experiment [2] the target is BRIL-AAA-KcsA (construct 2) (UniProt P0A334).
The target of experiment [3] is BRIL-AAAA-KcsA (construct 3, 1 turn) (UniProt P0A334).
The target in experiment [4] is BRIL-AAAAA-KcsA (construct 4) (UniProt P0A334).
In experiment [5] the target is BRIL-AARAAA-KcsA (construct 5) (UniProt P0A334).
Experiment [6] addresses BRIL-AARAAAA-KcsA (construct 6) (UniProt P0A334).

“BRIL-2turn-KcsA (construct 7) (from UniProt P0A334 24-160)” gave a stoichiometry N in experiment [1] of 4.
“BRIL-AAA-KcsA (construct 2) (from UniProt P0A334 24-160)” returned a stoichiometry N in experiment [2] of 4.
Substance “BRIL-AAAA-KcsA (construct 3, 1 turn) (from UniProt P0A334 24-160)” displayed a stoichiometry N in experiment [3] of 4.
As to “BRIL-AAAAA-KcsA (construct 4) (from UniProt P0A334 24-160)”, the stoichiometry N in experiment [4] worked out at 4.
Turning to “BRIL-AARAAA-KcsA (construct 5) (from UniProt P0A334 24-160)”, the stoichiometry N in experiment [5] was found to be 4.
Consider “BRIL-AARAAAA-KcsA (construct 6) (from UniProt P0A334 24-160)”, for which, in experiment [6], the stoichiometry N turned out to be 4.

For orientation: stoichiometry N means a count of units in the complex or per binding partner.
